Assay results from publication PMC6642547, “HERA-GITRL activates T cells and promotes anti-tumor efficacy independent of FcγR-binding functionality” (Journal for Immunotherapy of Cancer, 2019).

Molecular target: T1, HERA-GITRL (hexavalent TNF receptor agonist); single-chain GITRL-receptor-binding-domain fused to a silenced … (human, UniProt Q9UNG2 56-177; Q9UNG2 56-177; Q9UNG2 56-177)
T1 construct: glycine-serine based linker, 8 amino acids in length; GITRL (TNFSF18), human, second copy of E56-S177; GITRL (TNFSF18), human, third copy of E56-S177; also called hexavalent HERA-GITRL; scGITRL-RBD-Fc; not shown: Strep-Tag II, C-terminal, kept
T1 sequence (Q9UNG2 whole entry, the tested form may be a part, one chain of several): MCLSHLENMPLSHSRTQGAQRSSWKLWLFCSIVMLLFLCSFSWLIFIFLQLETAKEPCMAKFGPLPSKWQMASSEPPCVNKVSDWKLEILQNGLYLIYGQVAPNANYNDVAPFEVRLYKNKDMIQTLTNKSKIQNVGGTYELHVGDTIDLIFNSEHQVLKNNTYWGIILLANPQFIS
Assay: not stated; binding to and dissociation from the GITR-Fc receptors measured in real time, equilibrium binding constants (KD) calculated; instrument and who was immobilised not told in what was shown
Details: both partners purified

Kd: 0.602 nM
B1: cynomolgus monkey GITR-Fc (Fc fusion)
chain: QRPTGGPGCGPGRLLLGTGKDARCCRIHPTRCCGDYQGEECCSEWDCVCVQPEFHCGNPCCTTCQHHPCPSGQGVQPQGKFSFGFRCVDCALGTFSRGHDGHCKPWTDCTQFGFLTVFPGNKTHNAVCVPGSPPAEPPG
